# From the RNAGym collection of RNA variant scans (doi:10.7554/elife.90254)
# B1: LINE1-full (parent)
# chain: UACGUAGGUGGUUUUCCCCUGAUAGUGCUAAGGGGGCCUGGAAGUUUGGACUGGGCAGAGCUCAACACAGCGUGGCAAAGUGGCUGUGGCUAGACUGCCUCUCUGGAUUCCUCGUCACUCAGCAGGGCAUCUCUGAGAGAAAUGCC
# Variants of: B1
# Test: self-cleavage, relative activity (ratio to wild type); higher = more cleavage; in vitro, sequencing; the parent is a self-cleaving ribozyme
row,Variant,self-cleavage
1,UACGUAGGUGGUUUUCCCCUGAUAGUGCUAAGGGGGCCUGGAAGUUUGGACAGGGCAGAGCUCAACACAGCGUGGCAAAGUGGCUGUGGCUAGACUGCCUCUCUGGAUUCCUCGUCACUCAGCAGGGCAUCUCUGAGAGAAAUACC [U52A G144A],1.44
2,UACGUAGGUGGUUUUCCCCUGAUAGUGCUAAGGGGGCCUGGAAGUUUGGACAGGGCAGAGCUCAACACAGCGUGGCAAAGAGGCUGUGGCUAGACUGCCUCUCUGGAUUCCUCGUCACUCAGCAGGGCAUCUCUGAGAGAAAUGCC [U52A U81A],1.49
3,UACGUAGGUGGUUUUCCCCUGAUAGUGCUAAGGGGGCCUGGAAGUUUGGACAGGGCAGAGCUCAACACAGCGUGGCAAAGUGGCAGUGGCUAGACUGCCUCUCUGGAUUCCUCGUCACUCAGCAGGGCAUCUCUGAGAGAAAUGCC [U52A U85A],0.1
4,UACGUAGGUGGUUUUCCCCUGAUAGUGCUAAGGGGGCCUGGAAGUUUGGACAGGGCAGAGCUCAACACAGCGUGGCAAAGUGGCGGUGGCUAGACUGCCUCUCUGGAUUCCUCGUCACUCAGCAGGGCAUCUCUGAGAGAAAUGCC [U52A U85G],0.22
5,UACGUAGGUGGUUUUCCCCUGAUAGUGCUAAGGGGGCCUGGAAGUUUGGACAGGGCAGAGCUCAACACAGCGUGGCAAAGUGGCUGCGGCUAGACUGCCUCUCUGGAUUCCUCGUCACUCAGCAGGGCAUCUCUGAGAGAAAUGCC [U52A U87C],0.29
6,UACGUAGGUGGUUUUCCCCUGAUAGUGCUAAGGGGGCCUGGAAGUUUGGACAGGGCAGAGCUCAACACAGCGUGGCAAAGUGGCUGUGGCGAGACUGCCUCUCUGGAUUCCUCGUCACUCAGCAGGGCAUCUCUGAGAGAAAUGCC [U52A U91G],0.08
7,UACGUAGGUGGUUUUCCCCUGAUAGUGCUAAGGGGGCCUGGAAGUUUGGACAGGGCAGAGCUCAACACAGCGUGGCAAAGUGGCUGUGGCUAGACUGCCACUCUGGAUUCCUCGUCACUCAGCAGGGCAUCUCUGAGAGAAAUGCC [U52A U100A],1.29
8,UACGUAGGUGGUUUUCCCCUGAUAGUGCUAAGGGGGCCUGGAAGUUUGGACAGGGCAGAGCUCAACACAGCGUGGCAAAGUGGCUGUGGCUAGACUGCCUCACUGGAUUCCUCGUCACUCAGCAGGGCAUCUCUGAGAGAAAUGCC [U52A U102A],1.03
9,UACGUAGGUGGUUUUCCCCUGAUAGUGCUAAGGGGGCCUGGAAGUUUGGACAGGGCAGAGCUCAACACAGCGUGGCAAAGUGGCUGUGGCUAGACUGCCUCUCAGGAUUCCUCGUCACUCAGCAGGGCAUCUCUGAGAGAAAUGCC [U52A U104A],2.03
10,UACGUAGGUGGUUUUCCCCUGAUAGUGCUAAGGGGGCCUGGAAGUUUGGACAGGGCAGAGCUCAACACAGCGUGGCAAAGUGGCUGUGGCUAGACUGCCUCUCCGGAUUCCUCGUCACUCAGCAGGGCAUCUCUGAGAGAAAUGCC [U52A U104C],1.36
11,UACGUAGGUGGUUUUCCCCUGAUAGUGCUAAGGGGGCCUGGAAGUUUGGACAGGGCAGAGCUCAACACAGCGUGGCAAAGUGGCUGUGGCUAGACUGCCUCUCGGGAUUCCUCGUCACUCAGCAGGGCAUCUCUGAGAGAAAUGCC [U52A U104G],1.53
12,UACGUAGGUGGUUUUCCCCUGAUAGUGCUAAGGGGGCCUGGAAGUUUGGACAGGGCAGAGCUCAACACAGCGUGGCAAAGUGGCUGUGGCUAGACUGCCUCUCUGGACUCCUCGUCACUCAGCAGGGCAUCUCUGAGAGAAAUGCC [U52A U108C],1.66
13,UACGUAGGUGGUUUUCCCCUGAUAGUGCUAAGGGGGCCUGGAAGUUUGGACAGGGCAGAGCUCAACACAGCGUGGCAAAGUGGCUGUGGCUAGACUGCCUCUCUGGAUCCCUCGUCACUCAGCAGGGCAUCUCUGAGAGAAAUGCC [U52A U109C],1.21
14,UACGUAGGUGGUUUUCCCCUGAUAGUGCUAAGGGGGCCUGGAAGUUUGGACAGGGCAGAGCUCAACACAGCGUGGCAAAGUGGCUGUGGCUAGACUGCCUCUCUGGAUUCCCCGUCACUCAGCAGGGCAUCUCUGAGAGAAAUGCC [U52A U112C],1.43
15,UACGUAGGUGGUUUUCCCCUGAUAGUGCUAAGGGGGCCUGGAAGUUUGGACAGGGCAGAGCUCAACACAGCGUGGCAAAGUGGCUGUGGCUAGACUGCCUCUCUGGAUUCCUCGUCACUCAGCAGGGCACCUCUGAGAGAAAUGCC [U52A U130C],1.42
16,UACGUAGGUGGUUUUCCCCUGAUAGUGCUAAGGGGGCCUGGAAGUUUGGACAGGGCAGAGCUCAACACAGCGUGGCAAAGUGGCUGUGGCUAGACUGCCUCUCUGGAUUCCUCGUCACUCAGCAGGGCAUCACUGAGAGAAAUGCC [U52A U132A],1.18
17,UACGUAGGUGGUUUUCCCCUGAUAGUGCUAAGGGGGCCUGGAAGUUUGGACAGGGCAGAGCUCAACACAGCGUGGCAAAGUGGCUGUGGCUAGACUGCCUCUCUGGAUUCCUCGUCACUCAGCAGGGCAUCCCUGAGAGAAAUGCC [U52A U132C],1.48
18,UACGUAGGUGGUUUUCCCCUGAUAGUGCUAAGGGGGCCUGGAAGUUUGGACAGGGCAGAGCUCAACACAGCGUGGCAAAGUGGCUGUGGCUAGACUGCCUCUCUGGAUUCCUCGUCACUCAGCAGGGCAUCUCAGAGAGAAAUGCC [U52A U134A],1.04
19,UACGUAGGUGGUUUUCCCCUGAUAGUGCUAAGGGGGCCUGGAAGUUUGGACAGGGCAGAGCUCAACACAGCGUGGCAAAGUGGCUGUGGCUAGACUGCCUCUCUGGAUUCCUCGUCACUCAGCAGGGCAUCUCCGAGAGAAAUGCC [U52A U134C],2.25
20,UACGUAGGUGGUUUUCCCCUGAUAGUGCUAAGGGGGCCUGGAAGUUUGGACCGGGCGGAGCUCAACACAGCGUGGCAAAGUGGCUGUGGCUAGACUGCCUCUCUGGAUUCCUCGUCACUCAGCAGGGCAUCUCUGAGAGAAAUGCC [U52C A57G],0.4
